Measurements published in the nanobody polyreactivity screen of Harvey et al. (2022).

Test: yeast display, Sf9 membrane polyspecificity reagent, FACS + sequencing; frameworks hold sequencing errors
Method in brief: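 Using colony PCR, genes from sorted yeast display clones were amplified, then sequenced on MiSeq at 2 × 250 and filtered by CDR length. The clones had been stained with 10% biotinylated, detergent-solubilized Sf9 membrane reagent for 1 hour at 4 °C and sorted by FACS into low and high (top ~1%) gates on anti-HA and streptavidin fluorescence. Polyreactivity labels come from the gate of origin.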
With “QVQLVESGGGLVQAGGSLRLSCAASGRIFGVYAMGWYRQAPGKERELVADISWSGSGTYADSVKGRFTISRDNAKNTVYLQMNSLKPEDTAVYYCNVDPAQIHAGYVGYDYWGQGTQVTVSS” the “polyreactivity (PSR sort gate)” value was “low polyreactivity”.
In the case of “QVQLVESGGGLVQAGGSLRLSCAASGRIFGVYAMGWYRQAPGKERELVADISWSGSGTYADSVKGRFTISRDNAKNTVYLQMNSLKPEDTAVYYCNVDPAQIHSGYVGYDYWGQGTQVTVSS”, the “polyreactivity (PSR sort gate)” value is reported as “low polyreactivity”.
In the case of “QVQLVESGGGLVQAGGSLRLSCAASGRIFGVYAMGWYRQSPGKERELVAPISRSGGRTYYADSVKGRFTISRDNAKNSDYLQMNSLKPEDTAVYYCNVVRWYYHPPLTGSRFDYWGQGTQVTVSS”, the “polyreactivity (PSR sort gate)” value is reported as “high polyreactivity”.
With “QVQLVESGGGLVQAGGSLRLSCAASGRIFGVYVMGWYRQAPGKETELVAAISWSGSHTYYADSVKGRFTISRDNAKNTVYLQMNSLKPEDTAVYYCNADSYPDYTGPGLDWYDYWGQGTQVTVSS” the “polyreactivity (PSR sort gate)” value was “low polyreactivity”.
For “QVQLVESGGGLVQAGGSLRLSCAASGRIFGWYAMGWSRQAPGKERELGAAITTADSTYYADSVKGRFTISRDNAKNTVYLQMNSLKPEDTAVYYCAADAYWEYDYWGQGTQVTVSS”, the “polyreactivity (PSR sort gate)” value was “low polyreactivity”.
In the case of “QVQLVESGGGLVQAGGSLRLSCAASGRIFGWYAMGWYRQAPGKERELVAAISSSGVSTNYADSVKGRFTISRDNAKNTVYLQMNSLKPEDTAVYYCIARGFYWYRPYVNSNGGYWGQGTQVTVSS”, the “polyreactivity (PSR sort gate)” value is reported as “high polyreactivity”.
For “QVQLVESGGGLVQAGGSLRLSCAASGRIFGYNAMGWYRQAPGKERELVAAIDYTGGSTYYADSVKGRFTISRDNAKNTVYLQMNSLKPEDTAVYYCAKDRTTPWEEDDYWGQGTQVTVSS”, the “polyreactivity (PSR sort gate)” value was “low polyreactivity”.
For “QVQLVESGGGLVQAGGSLRLSCAASGRIFGYNAMGWYRQAPGKERELVAAITNGGSTNYADSVKGRFTISRDNAKNTVYLQMNSLKPEDTAVYYCAVKWYPPGHDYWGQGTQVTVSS”, the “polyreactivity (PSR sort gate)” value was “low polyreactivity”.
With “QVQLVESGGGLVQAGGSLRLSCAASGRIFGYNVMGWYIQAPGKERELVAAISWGTGSTYADSMKGRFTISRDNAKKTVYLQMNSLIPVDTAVYYCAADSFIPPYDHWGQGTQVTVSS” the “polyreactivity (PSR sort gate)” value was “low polyreactivity”.
With “QVQLVESGGGLVQAGGSLRLSCAASGRIFGYYAMGWSRQAPGKERELVATITFGGGSTYYADSVKGRFTISRDNAKNTVYFQMNSLKPEDTAVYYCAADSGYLGIYGDEYSWGQGTQVTVSS” the “polyreactivity (PSR sort gate)” value was “low polyreactivity”.
For “QVQLVESGGGLVQAGGSLRLSCAASGRIFGYYAMGWYIQAPGKERELVAAINWRGGNTNYADSVKGRFTISRDNAKNTVYLQMNSLKPEDTAVYYCNAQVLVRPIQGEYGYWGQGTQVTVSS”, the “polyreactivity (PSR sort gate)” value was “low polyreactivity”.
In the case of “QVQLVESGGGLVQAGGSLRLSCAASGRIFGYYAMGWYRQAPGKERELVAAISSRGSRTYYADSVKGRFTISRDNAKNTVYLQMNSLKPVDTAVYYCATYDYWGQGTQVTVSS”, the “polyreactivity (PSR sort gate)” value is reported as “high polyreactivity”.
For “QVQLVESGGGLVQAGGSLRLSCAASGRIFGYYAMGWYRQAPGKERELVAAISSSGGSTYYADSVKGRFTISRDNAKNTVYLQMNSLKPEDTAVYYCAREFSDGLSGKFDYWGQGTQVTVSS”, the “polyreactivity (PSR sort gate)” value was “low polyreactivity”.
For “QVQLVESGGGLVQAGGSLRLSCAASGRIFGYYAMGWYRQAPGKERELVAAISTRGTSTYYADSVKGRFTISRDNAKNTVYLQMNSLKPEDTAVYYCARGFPPYRGTHMNYWGQGTQVTVSS”, the “polyreactivity (PSR sort gate)” value was “high polyreactivity”.
In the case of “QVQLVESGGGLVQAGGSLRLSCAASGRIFGYYAMGWYRQAPGKERELVAAISYSTGGTSTYADSVKGRFTISRDNAKNTVYLQMNSLKPDDTAVYYCAKRIFTSARLNYWGQGTQVTVSS”, the “polyreactivity (PSR sort gate)” value is reported as “high polyreactivity”.
In the case of “QVQLVESGGGLVQAGGSLRLSCAASGRIFGYYAMGWYRQAPGKERELVAPITKTVGGTYYADSVKGRFTISRDNAKNTVYLQMNSLKPEDTAVYYCAARVWTGNGRSKGAYDYWGQGTQVTVSS”, the “polyreactivity (PSR sort gate)” value is reported as “high polyreactivity”.
In the case of “QVQLVESGGGLVQAGGSLRLSCAASGRIFGYYAMGWYRQAPGKESELVARISSSGGSTYYADSVKGRFTISRDNAKNTVYLQMNSLKPEDTAVYYCNTASNRSPGWRAEFDYWGQGTQVTVSS”, the “polyreactivity (PSR sort gate)” value is reported as “low polyreactivity”.
For “QVQLVESGGGLVQAGGSLRLSCAASGRIFGYYARGWYRQAPGKEREFVAGITQRTDSTYYADSVKGRFTISRDNAKNTVYLQMNSLKPEDTAVYYCAARGYGGYHWGYYWGQGTQVTVSS”, the “polyreactivity (PSR sort gate)” value was “high polyreactivity”.
In the case of “QVQLVESGGGLVQAGGSLRLSCAASGRIFGYYTMGWYRQAPGKERELVAAISSGGTTYYADSVKGRFTISRDNAKNTVYLQMNSLKPEDTAVYYCAADYYNTYGYDYWGQGTQVTVSS”, the “polyreactivity (PSR sort gate)” value is reported as “low polyreactivity”.
For “QVQLVESGGGLVQAGGSLRLSCAASGRIFGYYTMGWYRQAPGKERELVADSSGGNTSYADSVKGRFTISRDNAKNTVYLQMNSLKPEDTAVYYCAKDLPGAWRGDDYWGQGTQVTVSS”, the “polyreactivity (PSR sort gate)” value was “low polyreactivity”.
In the case of “QVQLVESGGGLVQAGGSLRLSCAASGRIFHANAMGWSRQAPGKERELVAGISRNGGRTYYADSVKGRFTISRDNAKNTVYLQMNSLKPEDTAVYYCNALHWQSKELDYFWGQGTQVTVSS”, the “polyreactivity (PSR sort gate)” value is reported as “high polyreactivity”.
For “QVQLVESGGGLVQAGGSLRLSCAASGRIFHGYAMGWYRQAPGKERELVAAISATGGSTYYADSVKGRFTISRDNAKNTVYLQMNSLKPEDTAVYYCARTNFYRSYDPGGRFYNYDYWGQGTQVTVSS”, the “polyreactivity (PSR sort gate)” value was “low polyreactivity”.
With “QVQLVESGGGLVQAGGSLRLSCAASGRIFHGYAMGWYRQAPGKERELVAAISSGGRTNYADSVKGRFTISRDNAKNTVYLQMNSLKPEDTAVYYCAAETQWYVRSRTLFYRYDYWGQGTQVTVSS” the “polyreactivity (PSR sort gate)” value was “high polyreactivity”.
With “QVQLVESGGGLVQAGGSLRLSCAASGRIFHPYAMGWYRPAPGKERELVAAITNSGGITYADSVKGRFTISRDNAKNTVYLQMNSLKPEDTSVYYCNTATNRFHYKYRKPYDYWGQGTQVTVSS” the “polyreactivity (PSR sort gate)” value was “low polyreactivity”.
In the case of “QVQLVESGGGLVQAGGSLRLSCAASGRIFHRNAMGWYRPAPGKERELVATIRGNGGSTYYADSVKGRFTISRDNAKNTVYLQMNSLKPEDTAVYYCARDAQGYGGWWTYSRFYSWGQGTQVTVSS”, the “polyreactivity (PSR sort gate)” value is reported as “high polyreactivity”.
For “QVQLVESGGGLVQAGGSLRLSCAASGRIFHRYAMGWYRQAPGKERELVASISRGDSTNYADSVKGRFTISRDNAKNTVYLQMNSLKPEDTAVYYCAARSFTRYRYYYWGQGTQVTVSS”, the “polyreactivity (PSR sort gate)” value was “high polyreactivity”.
With “QVQLVESGGGLVQAGGSLRLSCAASGRIFHRYAMGWYRQAPGKERELVASISRGDSTNYADSVKGRFTISRDNAKNTVYLQMNSLKPEDTAVYYCAAVPRRSGHQRWGATYYYWGQGTQVTVSS” the “polyreactivity (PSR sort gate)” value was “high polyreactivity”.
With “QVQLVESGGGLVQAGGSLRLSCAASGRIFHSYTMGWYRQAPGKERELVAAINWSGTRTYYADSVKGRFTISRDNAKNTVYLQMNSLKPEDTAVYYCNRVGVTRSYRYDYWGQGTQVTVSS” the “polyreactivity (PSR sort gate)” value was “high polyreactivity”.
In the case of “QVQLVESGGGLVQAGGSLRLSCAASGRIFHSYVMGWYRQAPGKERELVARISSGGRTNYADSVKGRFTISRDNAKNSVYLQMNSLKPEDTAVYYCAATRLYPRSRYDYWGQGTQVTVSS”, the “polyreactivity (PSR sort gate)” value is reported as “high polyreactivity”.
In the case of “QVQLVESGGGLVQAGGSLRLSCAASGRIFHTYGRRWSRQAPGKEREFVAAITWTGGSTYYADSVKGRFTISRDNAKNTFYLQMNSLKPEDTAVYYCAADYPRDIIGSMDYWGQGTQVTVSW”, the “polyreactivity (PSR sort gate)” value is reported as “low polyreactivity”.
For “QVQLVESGGGLVQAGGSLRLSCAASGRIFHVNAMGWYRQAPGKERELVATITTSGGTTYYADSVKGRFTISRDKAKNTVYLQMNSLKPEDTAVYYCAAKFPRQYSSRYNYWGQGTQVTVSS”, the “polyreactivity (PSR sort gate)” value was “low polyreactivity”.
With “QVQLVESGGGLVQAGGSLRLSCAASGRIFHWYAMGWYRQAPGKERELVATANTSYADSVKGRFTISRDNAKNTVYLQMNSLKPEDTALYYCATVGPRGRSLGDYWGQGTQVTVSS” the “polyreactivity (PSR sort gate)” value was “low polyreactivity”.
In the case of “QVQLVESGGGLVQAGGSLRLSCAASGRIFHYNAMGWYRQAPGKERELVAAISTGGSTNYADSVKGRFTISRDNAKNTVYLQMNSLKPEDTAVYYCNADLYVDPWTYFGYDYWGQGTQVTVSS”, the “polyreactivity (PSR sort gate)” value is reported as “low polyreactivity”.
For “QVQLVESGGGLVQAGGSLRLSCAASGRIFHYYAMGWYRQAPGKERELVAAINKSGGRTYYADSVKGRFTISRDNAKNTVYLQMNSLKPEDTAVYYCAAQDGYWGQGTQVTVSS”, the “polyreactivity (PSR sort gate)” value was “high polyreactivity”.
In the case of “QVQLVESGGGLVQAGGSLRLSCAASGRIFHYYAMGWYRQAPGKERELVAAINSAGSTKYADSVKGRFTISRDNAKNTVYLQMNSLKPEDTAVYYCAAERGSRDGGYDYWGQGTQVTVSS”, the “polyreactivity (PSR sort gate)” value is reported as “low polyreactivity”.
With “QVQLVESGGGLVQAGGSLRLSCAASGRIFHYYAMGWYRQAPGKERELVAAIRWSGGDTYYADSVKGRFTISRDNAKNTVYLQMNSLKPEDTAVYYCAAYEHVYEYDYWGQGTQVTVSS” the “polyreactivity (PSR sort gate)” value was “low polyreactivity”.
With “QVQLVESGGGLVQAGGSLRLSCAASGRIFHYYAMGWYRQAPGKERELVAAISWSGGSTYYADSVKGRFTISRDNAKNTVYLQMNSLKPEVTAVYYCNRQFGRRVYISHPGPGYWGQGTQVTVSS” the “polyreactivity (PSR sort gate)” value was “high polyreactivity”.
For “QVQLVESGGGLVQAGGSLRLSCAASGRIFHYYAMGWYRQAPGKERELVASISTGGNTYYADSVKGRFTISRDNAKNTVYLQMNSLKPEVTAVYYCAAVTVRKFYKGINYWYEYWGEGTQVTVSS”, the “polyreactivity (PSR sort gate)” value was “high polyreactivity”.
With “QVQLVESGGGLVQAGGSLRLSCAASGRIFHYYMGWYRQAPGKERELVAVISSGDGTYYADSVKGRFTISRDNAKNTVYLQMNSLKPEDTAVYYCAADAPREYVDHYKYDDDYWGQGTQVNVSS” the “polyreactivity (PSR sort gate)” value was “low polyreactivity”.
In the case of “QVQLVESGGGLVQAGGSLRLSCAASGRIFIANTMGWYRQAPGKERELVAAITQRGDSTYYADSVKGRFTISRDNAKNTVYLQMNSLKPEDTAVYYCAARYYLSSYVRYNYWGQGTQVTVSS”, the “polyreactivity (PSR sort gate)” value is reported as “high polyreactivity”.
In the case of “QVQLVESGGGLVQAGGSLRLSCAASGRIFIAYAMGWYRQAPGKERELVAAITDDGGTNYADSVKGRFTISRDNAKNTVYLQMNSLKPEDTAVYYCAATYLIGYYYVWEYDYWGQGTQVTVSS”, the “polyreactivity (PSR sort gate)” value is reported as “low polyreactivity”.
For “QVQLVESGGGLVQAGGSLRLSCAASGRIFIGYAMGWYRQAPGKERELVAAISWGGGSTFYADSVKGRFTISRDNAKNTVYLQMNSLKPEDTAVYYCNKVYRQRVVKGGYWGQGTQVTVSS”, the “polyreactivity (PSR sort gate)” value was “high polyreactivity”.
With “QVQLVESGGGLVQAGGSLRLSCAASGRIFIINAMGWYRQAPGKERELVAAITGTGSTYYADSVKGRFTISRDNAKNTVYLQMNSLKPEDTAVYYCAADVSYTYYGFWYDEYYWGQGTQVTVSS” the “polyreactivity (PSR sort gate)” value was “high polyreactivity”.
